From patent US20140356376

How the values were obtained:
[1] = test system: thioFAB 4497 MP-LAFGA-QSY7
[2] = test system: thio-S4497 HC v1-MP-LAFG-PABC-(piperazinoBOR) AAC-193
[3] = test system: thioFAB 4497 MP-LAFAA-QSY7

staphopain B
100%: Percent cleavage pH 7.2 [1] | Percent cleavage pH 5 [2] | Percent cleavage pH 7.2 [2] | Percent cleavage pH 7.2 [3]
